In paper PMC2553836, “Control of Jasmonate Biosynthesis and Senescence by miR319 Targets”:

Target: T1, TCP4 N-terminal fragment (pRSETC-TCP4-1, TCP4-N224) (Arabidopsis thaliana, UniProt Q8LPR5 1-224)
T1 sequence: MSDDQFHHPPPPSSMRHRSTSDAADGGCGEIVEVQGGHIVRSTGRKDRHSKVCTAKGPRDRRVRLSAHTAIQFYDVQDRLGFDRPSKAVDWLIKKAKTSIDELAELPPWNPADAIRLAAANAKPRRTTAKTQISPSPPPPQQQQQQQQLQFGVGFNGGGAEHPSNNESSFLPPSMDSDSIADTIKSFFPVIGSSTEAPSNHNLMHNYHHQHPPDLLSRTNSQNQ
Test: EMSA; 20 mM HEPES-KOH pH 7.8, 100 mM KCl, 1 mM EDTA, 0.1% BSA, 10 ng herring sperm DNA, 10% glycerol, ~10 fmol probe, 5-100 ng protein in 10 ul, 30 min room temperature; 6% native gel, 0.5x TBE
Settings: protein: recombinant; tags: His; chain copies: 2; label: 32P-dCTP (Klenow) as probe

B1: TCP4 consensus wild type (dsDNA)
DNA 1: AGATGGGGGACCACATAGATGT
DNA 2: ACATCTATGTGGTCCCCCATCT
B1: binds.
